# Experimental data taken from publication PMC3823275.
# Target: Tat13-Strep-Tactin (HIV-1 | Streptomyces avidinii)
# Assay: SDS-PAGE of tetramers after heating
substance,measurement,value
Tat13-Strep-Tactin (designed binder),stoichiometry N,4
